Patent US20200262877A1, “ION CHANNEL-BINDING PEPTIDES AND METHODS OF USE THEREOF” (priority 2017, published 2020)

Assays:
5HT3a = target: T1, 5HT3a (Homo sapiens, UniProt P46098); assay: Ion channel panel (IonWorks Barracuda): 5HT3a; type: cell-based
T1 construct: host or cells: HEK293 or CHO
T1 sequence (P46098 whole entry, looked up): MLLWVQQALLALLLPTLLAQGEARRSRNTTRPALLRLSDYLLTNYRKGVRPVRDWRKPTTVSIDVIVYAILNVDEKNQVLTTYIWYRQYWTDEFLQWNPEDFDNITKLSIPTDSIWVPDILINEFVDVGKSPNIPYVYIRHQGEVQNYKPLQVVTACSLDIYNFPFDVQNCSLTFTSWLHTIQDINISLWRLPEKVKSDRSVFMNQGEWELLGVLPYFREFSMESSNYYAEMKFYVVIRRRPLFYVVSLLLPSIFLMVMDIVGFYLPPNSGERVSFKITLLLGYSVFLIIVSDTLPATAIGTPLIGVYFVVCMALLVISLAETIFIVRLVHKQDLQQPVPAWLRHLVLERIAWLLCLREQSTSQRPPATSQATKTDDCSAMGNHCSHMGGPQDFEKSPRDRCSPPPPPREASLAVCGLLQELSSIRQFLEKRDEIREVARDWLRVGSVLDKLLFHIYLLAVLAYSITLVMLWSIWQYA
Procedure, shortened: (§1)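 Peptides were tested in duplicate at final 20 μM and 200 nM, with concentration set by amino acid analysis, in HEPES-buffered saline. They were applied for at least 5 min to HEK293 or CHO cells transfected with each channel. Currents were expressed as % inhibition, 1-(Ipeptide/Icontrol)×100, or % activation, Ipeptide/Icontrol×100, against a channel-matched reference compound.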

α3β4 = target: T2, α3β4 (Homo sapiens, UniProt P30926+P32297); assay: Ion channel panel (IonWorks Barracuda): α3β4; type: cell-based; details: 100% = no change, <100% = inhibition
T2 construct: host or cells: HEK293 or CHO
Procedure, shortened: as §1

α4β2 = target: T3, α4β2 (Homo sapiens, UniProt P17787+P43681); assay: Ion channel panel (IonWorks Barracuda): α4β2; type: cell-based; details: 100% = no change, <100% = inhibition
T3 construct: host or cells: HEK293 or CHO
Procedure, shortened: as §1

Cav2.1 = target: T4, Cav2.1 (Homo sapiens, UniProt O00555); assay: cell-based; details: 100% = no change, <100% = inhibition
T4 construct: host or cells: HEK293 or CHO
Procedure, shortened: as §1

Cav2.2 = target: T5, Cav2.2 (Homo sapiens, UniProt Q00975); assay: cell-based; details: 100% = no change, <100% = inhibition
T5 construct: host or cells: HEK293 or CHO
Procedure, shortened: as §1

Kv2.1 = target: T6, Kv2.1 (Homo sapiens, UniProt Q14721); assay: cell-based; details: 100% = no change, <100% = inhibition
T6 construct: host or cells: HEK293 or CHO
Procedure, shortened: as §1

GABA = assay: Ion channel panel (IonWorks Barracuda): GABA; type: cell-based; details: 100% = no change, <100% = inhibition
Procedure, shortened: as §1

Nav1.5 = Nav1.5 (Homo sapiens, UniProt Q14524); assay: in vitro; details: 100% = no change; for Activity of Nav1.5 with peptide, expressed as a percentage of the reference compound: peptide at 0.2 μM; for Activity of Nav1.5 with peptide (percentage of the reference compound): peptide at 20 μM
Procedure, shortened: as §1

hERG = hERG (Homo sapiens, UniProt Q12809); assay: in vitro; details: 100% = no change, <100% = inhibition
Procedure, shortened: as §1

Kir2.1 = target: T7, Kir2.1 (Homo sapiens, UniProt P63252); assay: Ion channel panel (IonWorks Barracuda): Kir2.1; type: cell-based; details: 100% = no change, <100% = inhibition
T7 construct: host or cells: HEK293 or CHO
Procedure, shortened: as §1

Kv1.1 = target: T8, Kv1.1 (Homo sapiens, UniProt Q09470); assay: cell-based; type: cell-based; details: 100% = no change, <100% = inhibition
T8 construct: host or cells: HEK293 or CHO
Procedure, shortened: as §1

Kv1.2 = target: T9, Kv1.2 (Homo sapiens, UniProt P16389); assay: cell-based; type: cell-based; details: 100% = no change, <100% = inhibition
T9 construct: host or cells: HEK293 or CHO
Procedure, shortened: as §1

Kv1.3 = target: T10, Kv1.3 (Homo sapiens, UniProt P22001); assay: cell-based; type: cell-based; details: 100% = no change, <100% = inhibition
T10 construct: host or cells: HEK293 or CHO
Procedure, shortened: as §1

Nav1.7 = target: T11, Nav1.7 (Homo sapiens, UniProt Q15858); assay: cell-based; type: cell-based; details: 100% = no change; for Activity of Nav1.7 with peptide, expressed as a percentage of the reference compound: peptide at 0.2 μM; for Activity of Nav1.7 with peptide (percentage of the reference compound): peptide at 20 μM
T11 construct: host or cells: HEK293 or CHO

NR2A = target: T12, NR2A (Homo sapiens, UniProt Q12879); assay: Ion channel panel (IonWorks Barracuda): NR2A; type: cell-based; details: 100% = no change, <100% = inhibition
T12 construct: host or cells: HEK293 or CHO
Procedure, shortened: as §1

NR2B = target: T13, NR2B (Homo sapiens, UniProt Q13224); assay: Ion channel panel (IonWorks Barracuda): NR2B; type: cell-based; details: 100% = no change, <100% = inhibition
T13 construct: host or cells: HEK293 or CHO
Procedure, shortened: as §1

TRPA1 = target: T14, TRPA1 (Homo sapiens, UniProt O75762); assay: Ion channel panel (IonWorks Barracuda): TRPA1; type: cell-based; details: 100% = no change, <100% = inhibition
T14 construct: host or cells: HEK293 or CHO
Procedure, shortened: as §1

TRPV1 = target: T15, TRPV1 (Homo sapiens, UniProt Q8NER1); assay: Ion channel panel (IonWorks Barracuda): TRPV1; type: cell-based; details: 100% = no change, <100% = inhibition
T15 construct: host or cells: HEK293 or CHO
Procedure, shortened: as §1

[1] = first of two Nav1.5 columns (probably TP1)
[2] = second of two Nav1.5 columns (probably TP2)
[3] = first of two Nav1.7 columns (probably TP1)
[4] = second of two Nav1.7 columns (probably TP2)

Nav1.5, sequence (Q14524 whole entry): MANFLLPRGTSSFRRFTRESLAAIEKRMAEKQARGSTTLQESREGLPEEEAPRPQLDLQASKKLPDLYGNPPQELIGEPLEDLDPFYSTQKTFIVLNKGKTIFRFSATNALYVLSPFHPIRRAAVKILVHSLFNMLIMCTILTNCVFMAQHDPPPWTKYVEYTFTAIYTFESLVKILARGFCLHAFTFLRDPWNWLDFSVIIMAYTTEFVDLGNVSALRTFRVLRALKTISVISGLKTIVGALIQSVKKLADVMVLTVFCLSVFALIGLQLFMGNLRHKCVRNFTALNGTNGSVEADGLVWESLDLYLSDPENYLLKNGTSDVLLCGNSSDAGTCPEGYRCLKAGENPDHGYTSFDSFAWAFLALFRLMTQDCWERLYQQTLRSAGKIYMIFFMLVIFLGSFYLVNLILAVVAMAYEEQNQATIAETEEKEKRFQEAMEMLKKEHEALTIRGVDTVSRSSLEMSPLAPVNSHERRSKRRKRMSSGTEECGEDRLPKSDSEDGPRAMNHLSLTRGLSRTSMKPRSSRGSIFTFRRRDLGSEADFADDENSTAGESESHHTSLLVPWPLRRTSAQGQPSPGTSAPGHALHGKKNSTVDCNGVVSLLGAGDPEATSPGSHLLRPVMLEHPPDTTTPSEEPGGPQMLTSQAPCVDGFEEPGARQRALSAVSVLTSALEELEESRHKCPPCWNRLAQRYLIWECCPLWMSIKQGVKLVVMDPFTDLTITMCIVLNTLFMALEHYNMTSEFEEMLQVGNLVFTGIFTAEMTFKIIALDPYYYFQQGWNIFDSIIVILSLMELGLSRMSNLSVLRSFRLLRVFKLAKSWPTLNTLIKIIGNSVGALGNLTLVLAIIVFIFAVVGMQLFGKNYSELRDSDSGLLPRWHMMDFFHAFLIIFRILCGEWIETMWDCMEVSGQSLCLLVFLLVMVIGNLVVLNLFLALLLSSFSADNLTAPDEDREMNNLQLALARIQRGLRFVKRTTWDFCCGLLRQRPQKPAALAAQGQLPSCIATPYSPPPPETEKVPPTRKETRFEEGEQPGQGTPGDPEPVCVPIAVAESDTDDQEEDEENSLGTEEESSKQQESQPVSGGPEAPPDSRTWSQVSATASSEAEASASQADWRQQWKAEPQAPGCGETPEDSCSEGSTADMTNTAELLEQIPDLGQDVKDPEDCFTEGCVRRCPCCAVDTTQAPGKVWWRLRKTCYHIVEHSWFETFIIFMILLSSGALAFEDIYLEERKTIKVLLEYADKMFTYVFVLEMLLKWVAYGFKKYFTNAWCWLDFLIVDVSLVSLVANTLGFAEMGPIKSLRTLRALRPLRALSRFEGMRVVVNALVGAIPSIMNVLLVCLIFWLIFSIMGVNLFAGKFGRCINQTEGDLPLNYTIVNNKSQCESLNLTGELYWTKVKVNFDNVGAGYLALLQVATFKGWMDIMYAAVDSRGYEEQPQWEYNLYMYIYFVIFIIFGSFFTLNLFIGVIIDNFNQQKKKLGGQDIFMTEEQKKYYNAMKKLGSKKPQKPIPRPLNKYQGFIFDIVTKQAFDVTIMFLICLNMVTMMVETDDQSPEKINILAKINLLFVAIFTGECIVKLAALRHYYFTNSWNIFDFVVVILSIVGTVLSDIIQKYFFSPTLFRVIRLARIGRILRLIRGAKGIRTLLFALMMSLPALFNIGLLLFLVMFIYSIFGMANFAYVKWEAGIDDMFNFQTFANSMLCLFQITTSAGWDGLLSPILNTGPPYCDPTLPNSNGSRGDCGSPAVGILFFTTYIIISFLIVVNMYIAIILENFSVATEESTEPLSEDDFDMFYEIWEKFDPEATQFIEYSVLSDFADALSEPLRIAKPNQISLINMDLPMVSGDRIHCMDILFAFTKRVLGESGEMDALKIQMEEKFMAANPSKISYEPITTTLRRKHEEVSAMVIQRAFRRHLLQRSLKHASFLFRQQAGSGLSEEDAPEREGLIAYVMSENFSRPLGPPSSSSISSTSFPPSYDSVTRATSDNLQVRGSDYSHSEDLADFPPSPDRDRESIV
T11 sequence (Q15858 whole entry): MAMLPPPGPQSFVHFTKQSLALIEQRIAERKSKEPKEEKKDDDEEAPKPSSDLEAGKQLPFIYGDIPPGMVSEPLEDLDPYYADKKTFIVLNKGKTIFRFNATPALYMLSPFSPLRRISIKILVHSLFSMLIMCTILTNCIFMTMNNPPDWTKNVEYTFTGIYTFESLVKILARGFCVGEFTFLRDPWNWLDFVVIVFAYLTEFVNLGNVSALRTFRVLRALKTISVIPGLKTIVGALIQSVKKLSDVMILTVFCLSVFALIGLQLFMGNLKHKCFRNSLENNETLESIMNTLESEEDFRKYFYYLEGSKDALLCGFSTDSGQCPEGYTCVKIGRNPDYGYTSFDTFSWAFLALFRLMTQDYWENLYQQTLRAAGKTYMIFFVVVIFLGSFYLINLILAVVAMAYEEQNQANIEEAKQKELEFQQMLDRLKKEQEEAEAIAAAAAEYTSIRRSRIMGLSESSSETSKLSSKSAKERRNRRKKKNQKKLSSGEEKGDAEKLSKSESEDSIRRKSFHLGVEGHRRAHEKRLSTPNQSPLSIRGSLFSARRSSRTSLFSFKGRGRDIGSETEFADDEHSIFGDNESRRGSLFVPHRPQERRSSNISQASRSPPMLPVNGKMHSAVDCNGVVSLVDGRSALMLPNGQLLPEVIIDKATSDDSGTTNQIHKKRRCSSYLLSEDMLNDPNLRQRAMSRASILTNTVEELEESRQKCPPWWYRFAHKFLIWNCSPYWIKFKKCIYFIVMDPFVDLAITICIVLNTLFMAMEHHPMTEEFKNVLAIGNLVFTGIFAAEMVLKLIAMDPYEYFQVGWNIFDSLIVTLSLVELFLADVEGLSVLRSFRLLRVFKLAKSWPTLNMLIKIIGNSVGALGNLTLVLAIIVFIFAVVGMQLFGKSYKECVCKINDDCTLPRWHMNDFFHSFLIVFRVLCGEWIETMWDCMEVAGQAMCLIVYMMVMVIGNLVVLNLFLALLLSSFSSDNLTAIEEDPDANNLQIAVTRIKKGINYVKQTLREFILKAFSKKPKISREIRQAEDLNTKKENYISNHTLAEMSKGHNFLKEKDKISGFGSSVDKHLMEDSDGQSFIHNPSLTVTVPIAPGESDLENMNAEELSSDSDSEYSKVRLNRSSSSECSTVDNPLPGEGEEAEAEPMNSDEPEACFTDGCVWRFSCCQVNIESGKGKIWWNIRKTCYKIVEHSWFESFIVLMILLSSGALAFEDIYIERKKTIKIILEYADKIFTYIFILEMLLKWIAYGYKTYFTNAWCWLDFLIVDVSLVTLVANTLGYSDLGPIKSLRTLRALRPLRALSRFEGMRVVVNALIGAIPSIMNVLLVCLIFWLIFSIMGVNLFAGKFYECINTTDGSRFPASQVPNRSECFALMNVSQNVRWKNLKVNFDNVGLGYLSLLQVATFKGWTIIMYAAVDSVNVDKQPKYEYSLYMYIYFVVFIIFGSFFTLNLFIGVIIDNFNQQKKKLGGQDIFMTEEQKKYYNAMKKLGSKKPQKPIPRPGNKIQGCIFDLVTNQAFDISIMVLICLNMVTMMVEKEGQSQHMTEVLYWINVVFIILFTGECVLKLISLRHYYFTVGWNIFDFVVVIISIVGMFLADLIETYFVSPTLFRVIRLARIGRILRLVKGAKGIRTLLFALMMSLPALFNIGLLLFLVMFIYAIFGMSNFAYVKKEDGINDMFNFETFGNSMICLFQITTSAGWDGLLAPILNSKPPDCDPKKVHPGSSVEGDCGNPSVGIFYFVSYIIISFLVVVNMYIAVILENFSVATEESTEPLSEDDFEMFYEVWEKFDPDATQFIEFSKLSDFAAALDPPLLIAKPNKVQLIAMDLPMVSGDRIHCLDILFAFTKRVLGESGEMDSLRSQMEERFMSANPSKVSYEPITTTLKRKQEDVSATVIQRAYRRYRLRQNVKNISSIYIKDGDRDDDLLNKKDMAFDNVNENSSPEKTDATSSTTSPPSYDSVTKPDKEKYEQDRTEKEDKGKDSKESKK
T15 sequence (Q8NER1 whole entry): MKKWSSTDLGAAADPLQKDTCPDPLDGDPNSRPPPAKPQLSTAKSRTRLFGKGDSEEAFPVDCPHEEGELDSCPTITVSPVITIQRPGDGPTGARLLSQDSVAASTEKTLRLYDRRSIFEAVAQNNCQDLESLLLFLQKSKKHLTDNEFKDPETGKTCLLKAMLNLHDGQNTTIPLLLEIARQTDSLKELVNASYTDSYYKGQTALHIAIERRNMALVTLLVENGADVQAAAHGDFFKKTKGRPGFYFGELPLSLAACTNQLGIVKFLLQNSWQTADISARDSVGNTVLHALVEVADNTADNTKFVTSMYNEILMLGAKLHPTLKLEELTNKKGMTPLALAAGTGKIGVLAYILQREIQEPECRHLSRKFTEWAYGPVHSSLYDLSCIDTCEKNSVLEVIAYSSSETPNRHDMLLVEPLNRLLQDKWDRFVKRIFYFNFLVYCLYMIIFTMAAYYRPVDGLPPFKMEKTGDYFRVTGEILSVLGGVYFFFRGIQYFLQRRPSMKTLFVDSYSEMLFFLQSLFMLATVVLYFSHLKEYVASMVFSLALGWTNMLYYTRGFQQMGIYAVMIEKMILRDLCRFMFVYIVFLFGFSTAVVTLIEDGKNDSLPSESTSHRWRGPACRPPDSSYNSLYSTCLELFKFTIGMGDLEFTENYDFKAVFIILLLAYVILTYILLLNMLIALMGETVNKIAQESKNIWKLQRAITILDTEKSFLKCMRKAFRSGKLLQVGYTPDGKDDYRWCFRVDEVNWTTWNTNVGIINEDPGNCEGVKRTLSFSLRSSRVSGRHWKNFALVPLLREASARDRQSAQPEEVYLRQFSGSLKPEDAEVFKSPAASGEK

Question: For “22 (GSSDYCSNDFCFFSCRRDRCARGDCENGKCVCKNCHLN) [compound 22]”, which “Activity of 5HT3a with peptide (percentage of the reference compound)” value (5HT3a) is on record?
Answer: Its value is 95%.

Question: And the “Activity of 5HT3a with peptide, expressed as a percentage of the reference compound” value (5HT3a)?
Answer: Its value is 77%.

Question: What about the “Activity of a3b4 with peptide, expressed as a percentage of the reference compound” value (α3β4; peptide at 0.2 μM) of the same substance?
Answer: Its value is 98%.

Question: And the “Activity of a3b4 with peptide (percentage of the reference compound)” value (α3β4; peptide at 20 μM)?
Answer: The value was 92%.

Question: And the “Activity of a4b2 with peptide, expressed as a percentage of the reference compound” value (α4β2; peptide at 0.2 μM)?
Answer: The value was 92%.

Question: And the “Activity of a4b2 with peptide (percentage of the reference compound)” value (α4β2; peptide at 20 μM)?
Answer: Its value is 83%.

Question: And the “Activity of Cav2.1 with peptide, expressed as a percentage of the reference compound” value (Cav2.1; peptide at 0.2 μM)?
Answer: The value was 98%.

Question: And the “Activity of Cav2.1 with peptide (percentage of the reference compound)” value (Cav2.1; peptide at 20 μM)?
Answer: The value was 99%.

Question: What about the “Activity of Cav2.2 with peptide, expressed as a percentage of the reference compound” value (Cav2.2; peptide at 0.2 μM) of the same substance?
Answer: The value was 130%.

Question: And the “Activity of Cav2.2 with peptide (percentage of the reference compound)” value (Cav2.2; peptide at 20 μM)?
Answer: Its value is 86%.

Question: What about the “Activity of Kv2.1 with peptide, expressed as a percentage of the reference compound” value (Kv2.1; peptide at 0.2 μM) of the same substance?
Answer: The value was 110%.

Question: What about the “Activity of Kv2.1 with peptide (percentage of the reference compound)” value (Kv2.1; peptide at 20 μM) of the same substance?
Answer: The value was 93%.

Question: What about the “Activity of GABA with peptide, expressed as a percentage of the reference compound” value (GABA; peptide at 0.2 μM) of the same substance?
Answer: The value was 99%.

Question: And the “Activity of GABA with peptide (percentage of the reference compound)” value (GABA; peptide at 20 μM)?
Answer: The value was 124%.

Question: And the “Activity of Nav1.5 with peptide, expressed as a percentage of the reference compound” value (Nav1.5; [1])?
Answer: Its value is 90%.

Question: And the “Activity of Nav1.5 with peptide, expressed as a percentage of the reference compound” value (Nav1.5; [2])?
Answer: The value was 90%.

Question: What about the “Activity of Nav1.5 with peptide (percentage of the reference compound)” value (Nav1.5; [1]) of the same substance?
Answer: The value was 112%.

Question: What about the “Activity of Nav1.5 with peptide (percentage of the reference compound)” value (Nav1.5; [2]) of the same substance?
Answer: Its value is 116%.

Question: What about the “Activity of hERG with peptide, expressed as a percentage of the reference compound” value (hERG; peptide at 0.2 μM) of the same substance?
Answer: Its value is 84%.

Question: And the “Activity of hERG with peptide (percentage of the reference compound)” value (hERG; peptide at 20 μM)?
Answer: The value was 79%.

Question: And the “Activity of Kir2.1 with peptide, expressed as a percentage of the reference compound” value (Kir2.1; peptide at 0.2 μM)?
Answer: Its value is 94%.

Question: What about the “Activity of Kir2.1 with peptide (percentage of the reference compound)” value (Kir2.1; peptide at 20 μM) of the same substance?
Answer: Its value is 97%.

Question: What about the “Activity of Kv1.1 with peptide, expressed as a percentage of the reference compound” value (Kv1.1; peptide at 0.2 μM) of the same substance?
Answer: Its value is 83%.

Question: What about the “Activity of Kv1.1 with peptide (percentage of the reference compound)” value (Kv1.1; peptide at 20 μM) of the same substance?
Answer: The value was 97%.

Question: What about the “Activity of Kv1.2 with peptide, expressed as a percentage of the reference compound” value (Kv1.2; peptide at 0.2 μM) of the same substance?
Answer: Its value is 82%.

Question: And the “Activity of Kv1.2 with peptide (percentage of the reference compound)” value (Kv1.2; peptide at 20 μM)?
Answer: Its value is 34%.

Question: And the “Activity of Kv1.3 with peptide, expressed as a percentage of the reference compound” value (Kv1.3; peptide at 0.2 μM)?
Answer: Its value is 100%.

Question: And the “Activity of Kv1.3 with peptide (percentage of the reference compound)” value (Kv1.3; peptide at 20 μM)?
Answer: Its value is 51%.

Question: What about the “Activity of Nav1.7 with peptide, expressed as a percentage of the reference compound” value (Nav1.7; [3]) of the same substance?
Answer: The value was 79%.

Question: What about the “Activity of Nav1.7 with peptide, expressed as a percentage of the reference compound” value (Nav1.7; [4]) of the same substance?
Answer: Its value is 81%.

Question: What about the “Activity of Nav1.7 with peptide (percentage of the reference compound)” value (Nav1.7; [3]) of the same substance?
Answer: Its value is 94%.

Question: What about the “Activity of Nav1.7 with peptide (percentage of the reference compound)” value (Nav1.7; [4]) of the same substance?
Answer: Its value is 87%.

Question: What about the “Activity of NR2A with peptide, expressed as a percentage of the reference compound” value (NR2A; peptide at 0.2 μM) of the same substance?
Answer: The value was 107%.

Question: And the “Activity of NR2A with peptide (percentage of the reference compound)” value (NR2A; peptide at 20 μM)?
Answer: The value was 129%.

Question: And the “Activity of NR2B with peptide, expressed as a percentage of the reference compound” value (NR2B; peptide at 0.2 μM)?
Answer: The value was 94%.

Question: And the “Activity of NR2B with peptide (percentage of the reference compound)” value (NR2B; peptide at 20 μM)?
Answer: Its value is 97%.

Question: What about the “Activity of TRPA1 with peptide, expressed as a percentage of the reference compound” value (TRPA1; peptide at 0.2 μM) of the same substance?
Answer: The value was 90%.

Question: What about the “Activity of TRPA1 with peptide (percentage of the reference compound)” value (TRPA1; peptide at 20 μM) of the same substance?
Answer: The value was 128%.

Question: And the “Activity of TRPV1 with peptide, expressed as a percentage of the reference compound” value (TRPV1; peptide at 0.2 μM)?
Answer: The value was 102%.

Question: And the “Activity of TRPV1 with peptide (percentage of the reference compound)” value (TRPV1; peptide at 20 μM)?
Answer: The value was 67%.
